This note sets out measurements from a protein production outcome set (Wang et al. 2014).

This data set in a line: label from the status in PepcDB records.

Turning to “AIDVSAKSAIIIDGASGRVLYAKDEHQKRRIASITKIMTAVLAIESGKMDQTVTVSANAVRTEGSAIYLTEGQKVKLKDLVYGLMLRSGNDAAVAIAEHVGGSLDGFVYMMNQKAEQLGMKNTRFQNPHGLDDHENHYSTAYDMAILTKYAMKLKDYQKISGTKIYKAETMESVWKNKNKLLTMLYPYSTGGKTGYTKLAKRTLVSTASKDGIDLIAVTINDPNDWDDHMKMFNYVFEHYQTYLIAKKGDIPKLKGTFYESKAFIKRDITYLLTEEEKENVKINTTLLKPKKAWEKDASKIPDIVGHMEIMFNDATIAKVPIYYENERHQK”, the protein production entry is “not failed”.
Regarding “ALAETVSDFRLPNGLEVVVIEDHRAPVVTHMVWYRVGAADEPPGHSGIAHFLEHLMFKGTDEMSAGEFSATVEAQGGDDNAFTSWDYTAYFQRVAADRLDLMMKMEADRMRDLQMTEEDVRTERQVVLEERSQRTDSDPGAVFSEQSRAAAYLNHPYGIPIIGWRHEIEQLGREDAFSFYRTYYAPNNAILVVAGDVDPAEVRRMAEEHYGALEPTP”, the protein production entry is listed as “failed”.
As to “ALLQTPEFVEEFILDRTMNPAVREFGYEELKMIDPTCGSGHFVLGAFRRLVRLGGENQPGKDVHQRVRAALDSVHGVDINPFAVAIARFRLLVAAMAASGVRTLDEASKYEWPVHLAVGDSLIKSGSQQGSLFGESDDDLTDELAEFKYATEDVGEHPEMLRPGRYHVVVGNPPYITVKDKSLNALYRELYPACAGKYALSVPFAQRFFELAKREDAEGSGYGMVGQITANSFMKREFGTKLIEGYFGHAVELTEVIDTSGAYIPGHGTPTVILVGTRRGGDGR”, the protein production result was “failed”.
On to “ALRTELGLNVSGGGKTNQYYFSAGYLNDKGIALESGYERFNLRSNVTSQMTKWLRGGVNMSFAHSLQNYPVSSDTKTSNVINAGRLMNGFYPIYQMNEDGTYKLDSEGQRMYDFGSYRPSGSMANWNLPATLPNDKSERMKDEFSGRTFLEVTFIEGLKFKTSFNFDLINYNSLDYTNPKIGPAVNTGGSSSRENDRTFSWTWNNILTYDKTLGEHHFNLLAGQEAYSYRYDVLRASRSNMALPDFPELAVGSLVTGGTGYRVDYSLVGYFLNAQYDYQSKYFFSGSYRRDGSSRFAPETRWGNFWSVGASWRIDREDFMVAASDWLSALTLKVSYGAQGNDNLGTYYASSGLYSVVSNNGENALVSDRLATPKLKWETNLNFNAGIDFSLFNNRFSGSFDFFQRRSKDLLYSRPLAPSLGYNSVDENVGELKNTGVEIDLKGTLIHTRDFMWRLGLNLTHYKNVVTDLPLKDMP”, for which the protein production result was “failed”.
Under “ANKKIDHREEAIELLKQDAKRILQLIKVQMDNLTLPQCPAYEEVLDTQMYGLSREINFATRLGLIEPEEGKKLISTLEKELSALHELSMSK” stands “failed”.
For the sequence “ANLISPVCDMGSAVTAPVYAAILAYRDAVTQILGAPADFAQMMADEAISQILDLMRNEGIKNMEDKLNPKALTGTADSMCFGPLADILPASLKVLEKHANENKCECGCSIKP”, the protein production result was “failed”.
For “APEERDLTQEQTEKLLQFQDLTGIESMDQCRHTLEQHNWNIEAAVQDRLNEQEG”, the protein production result is reported as “not failed”.
As to “APHGPGLIYRQPNCDDPETEEAALVAIDYINQNLPWGYKHTLNQIDEVKVWPQQPSGELFEIEIDTLETTCHVLDPTPVARCSVR”, the protein production entry is listed as “failed”.
“APLYIKVHEIDNTAIIVNDGGLPKGTVFSCGLVLEEDVPQGHKVALTDLNQGDEIVRYGEVIGFADETIKRGSWIREALVRMPAP”: the protein production result is given as “not failed”.
“APTSSNDTGKTVVAVTACPTGIAHTYMAAEKLQETANKLGVRIKVETNGSRGVENRLTDKEIAEADGVIIAADVQVDMPRFDGKHLIAKPVAAGIHKPEELIKEAISGNAPVYKAESGSEATEST”: the protein production entry is reported as “not failed”.
Turning to “AQSDGWSPKDHNLIKSVREDGRFLSSYGVVHAMLRNTEPRYAFHRDFSPKEFRKWQKGLRHAMEEIMKFPQIKNSPAPVCIKREQREGYRLEKWEFYPLPKCVSTFLVLIPDNINKPVPAILCIPGSGGNKEGLAGEPGIAPKLNDRYKDPKLTQALNFVKEGYIAVAVDNPAAGEASDLERYTLGSNYDYDVVSRYLLELGWSYLGYASYLDMQVLNWMKTQKHIRKDRIVVSGFSLGTEPMMVLGTLDTSIYAFVYNDFLCQTQERAEVMTMPDKNGRRPFPNSIRHLIPDFWKNFNFPDIVAALAPRPIILTEGGLDRDLDLVRKAYAIVGTPDNVKIYHYKKFSDPDTRKNVEYLPEGLDRNEYFRMVNVDGPNHYFKSELVVPWLRKLLEER”, the protein production result is recorded as “not failed”.
To “ARQVTPGQVMVASTVGKLSALLAADLSDEQAQRLGLDTLLPLRESDGPTLFCFHPASGFAWQFSVLARYLSPRWSITGIQSPRPQGPMASAASLDEVCEHHLQTLLAQQPHGPYYLFGYSLGGTLAQGIAARLRQRGEAVAFLGLLDTWPPETQNWAEKEANGLDPEVLAEIDREREAFLAAQQGQASGELFSAIEGNYADAVRLLTTAHSAKFDGKATLFVAEKTRQEGMDPQVVWGPWVGELEVFSQNCAHVDIISPQAFEAIGPVVREILG” belongs “not failed”; to “ASIVGSWVEPVPGLEGQVQGIKMEEGGVASSVNMATLVYESWKQEGTKLILTGKSIGNGQTIEFVDTMDIKRLTADSLVLDNQGMEIRYAKQK”, “not failed”.
As for “ASLLARYPPEKLFQAERNFNAAQDLDVSLLEGDLVGVIKKKDPMGSQNRWLIDNGVTKGFVYSSFLKPYNPRRSHSDAS”, the protein production entry is “not failed”.
For “ATFFIKMNQKTVPEFKNKHLRLAISQAINKKGYVNSVLNDGSLPSNNFTGVGTADTPDGKDFARTIKSPLKFNPDLAKKNWREAQKELGKNKFTFTMNTQDTPASKIAAEYIKSQIESHLPGVTLKIKQMPFKQKTTLELANNYEASYSGWSPDYPDPTAFLQTMTKNNAQNNTDWSNKEYDQLLKDANSKLLRKLGERNTSLQKAEYILLHEAPVAPVYQ”, the protein production entry was “failed”.
As for “ATPPISNLTKTASESISNLSEAGSIKKGERELKIGDRVLVGGTKAGVVRFLGETDFAKGEWCGVELDEPLGKNDGAVAGTRYFQCQPKYGLFAPVHKVTKIGFPSTTPAKAKANAVRRVMATTSASLKRSPSASSLSSMSSVASSVSSRPSRTGLLTET”, the protein production entry is “not failed”.
In the case of “ATSYMTCSAYQKVQDSEISFPAGVEVQVLEKQESGWWYVRFGELEGWAPSHYLVLDENEQPDPSGKE”, the protein production result is given as “not failed”.
In the case of “CGGCGEDVVGDGAGVVALDRVFHVGCFVCSTCRAQLRGQHFYAVERRAYCEGCYVATLE”, the protein production entry was “not failed”.
Under “CTFKSVADEWVKTKTKLKPKTVQGNWRKLELYAFPKFGEIPVKSLTPIIVQEAFRPIARRGKLETVKRTIQLVNEIMRFAINSGLIQHNVLSGVG” stands “failed”; under “CVECRKPIGADSKEVHYKNRFWHDTCFRCAKCLHPLANETFVAKDNKILCNKCTTREDSPKCKGCFKAIVAGDQNVEYKGTVWHKDCF”, “not failed”; under “DAPPAWLRCLAATYPVLAPLPNWGLSESRFRPVRAVANAGALPVVLTRVGREMPEIAATVEEFLAAAKDCGADVEVVDVPHGHHGFETIDLTDESRTAVRHALRTVL”, “failed”.
As to “DDAGKTAIYWLGYDLPPEIPTIVILHTITGTPSSMRELVRDLHQHTGWRIALCVRRGHADLEFSVPRFNLFGSVSDLKQQLDYIQNHFPQSNLYGVGSSAGSGLLVRYLGEEADEAYFKAAFAFCPGYNTETGFEKVHPVYSQYMAKKLLKTFVYKYIDSWQHVENLEEVLSSKNLTEFHLRYYKLAGFKNYQEYSLATNPMHVFKNIKIPLMVLNSQDDPVCHIDNFEPYIPEIQKLSNIVVVTTKKGSHCAFYEGWTPQSWASRLMANYFLQHHQ”, the protein production entry is “failed”.
Under “DDDDDNGGSSVMNITGIYLEDAKSNVPDRLVDFARLGQLIRIEGEGFNGLKKVYINGYNCYFNPVFVSNKSFLVSVNSKVPTTEADENVRNTIRLVKDGGEYVYDFQIRAAAPSITKISNCMPNVGEPIIVYGSGLTEIAKVVFPGNVVVTEGIISDLDGEYFMVDMPAGVSEEGGSIFVEGSNGGAYSPAYFNYKKGLLLNFDGVGAQGAWGDSESMIQTTELESASIGEGNVSQGAYCRLPLERQLPVAAAKNRCAEVWTAGNGTDPDWLTLGVPAETPVAECAIQFEIYVPEPWSESGFLKICGQNGFNGGEWERDCYNYVPWLVDGKIVPFQTTGWQTVTVPFSEFYKSKASSGAWTTFADVTATRASASYANFGFYFENSDITLDKITGASSDKETEFLSKATSVKIYIDNWRVVPLTKPEYTDFPDEEEDAE” stands “not failed”; under “DDDLEVKEENGVWVLNDGNFDNFVADKDTVLLEFYAPWCGHCKQFAPEYEKIASTLKDNDPPIAVAKIDATSASMLASKFDVSGYPTIKILKKGQAVDYDGSRTQEEIVAKVREVSQPDWTPPPEVT”, “not failed”; under “DELFNWFYIRSEINSKMSFYIATESDALVSILGFYACDFLIDSRIVPGLWTAMWFTLPQYRNGIGALLMKELVDTNSCSMWPRRIKHEFTNS”, “failed”.
To “DETIHLERGENLFEIHINKVTFSSEVLQASGDKEPVTFCTYAFYDFELQTTPVVRGLHPEYNFTSQYLVHVNDLFLQYIQKNTITLEVHQAYSTEYETIAACQLKFHEILEKSGRIFCTASLIGTKGDIPNFGTVEYWFRLRV” belongs “not failed”; to “DFNPEIFQLESYFKSKYHLKDIEIVSSRKDSDTSEIEKDLAHVAAAMIRKKIKENDKVGIAWGRTLSKVVEAMRPHPVSQVSFVPLAGGPSHINARYHVNTLVYEMSRRFQGSCTFINATLVQENANLAKGILTSKYFEGLMDNWEKLDVAIVGVGGKPKSNEQQWLDLLNQDDFQCLDEEAAVGEITCRFFNHSGDPVNQHLAKRTIGITLEQLQKVPNRIAVAHGNYKAAALLAVLKKGYINHLVTDFSTALNILRLDKDTFVDTIYQKS”, “failed”.
Take “DGDIGQLSKTFNYMVSELKSRRNELIAVRDQIDERRRFSEAVLSGVTAGVAGIDDNGNITIINRSIETMFDIRSEHVIGHSLLSLSAEIDQVFQFARSLGRKNHREQVTLSVAGQERVCNVQITMEKDDG”: the protein production result is recorded as “failed”.
In the case of “DGIVELKTVPFDQLVVYEQKLFPAERERFLRLWIKQPNSAAYAVVRDGQIVGYGVIRQSHTGLRIGPLNADNEQIAEQLLLALLAFRSDALVFLDVPDANLEAIKLVQRYGMKPVSEVARMYNKEIPNLLINRVFAVTSLEVG”, the protein production result is “failed”.
As to “DGQPVAMGDVGELVIGGVGLARYLDPVKDREKFSAELGWERAYRSGDHVRLCEDGLYFVGRIDDQVKIGGRRIELGEVEAHVAALPNVAQYAVVVRETAAGEKVLVAYVSPQVPDVDIDTSALDELPRAMVPRLVVLPEIPTTTSGKADKKALPWPLESAQVTGSDFTPTQQWLAQLWVDVLGVPVGDVD”, the protein production entry is reported as “failed”.
With “DISEELDYERGRYLDAMIDNHKYTGKARAIIYGQPELALALAKVCFENGVNVKLIALGAKNKILEEALKEEIKSQREEVLVLDDTDFDTIEKYAKEFNVNLFIGNSDGRRMASRLGIEIIRVGFPIHDRV”, the protein production entry is “failed”.
As to “DISKITDVAVMTVEGANDDISAPGQCIAALDLCTGLADSKKANHLEPGAGHYGIFAGRSWRDNIRPLVIDFMNTNSRKGKSLRPANKNSAA”, the protein production entry was “failed”.
Under “DKLYPCQCGKSFTHKSQRDRHMSMHLGLRPYGCGVCGKKFKMKHHLVGHMKIHTGIKPYECNICAKRFMWRDSFHRHVTSCTKSYEAAKAEQNTTEA” stands “not failed”.
“DKMDGAPSRVLHIRKLPGEVTETEVIALGLPFGKVTNILMLKGKNQAFLELATEEAAITMVNYYSAVTPHLRNQPIYIQYSNHKELKT”: the protein production entry was “not failed”.
